Laboratory results: PMC7046344

Columns and labels:
[1] = biological target: Spn-F-FLAG (UniProt Q9V9Y9); assay: co-immunoprecipitation (IP anti-FLAG, IB myc, band ratio by ImageJ); conditions: lysates of S2 cells co-expressing SpnF-FLAG and myc-Rab11; parent: 1
[2] = biological target: T1, Spn-F-FLAG, Q9V9Y9; assay: as above; conditions: chain shown with the change; lysates of S2 cells co-expressing SpnF-FLAG and myc-Rab11; parent: 1
T1 chain: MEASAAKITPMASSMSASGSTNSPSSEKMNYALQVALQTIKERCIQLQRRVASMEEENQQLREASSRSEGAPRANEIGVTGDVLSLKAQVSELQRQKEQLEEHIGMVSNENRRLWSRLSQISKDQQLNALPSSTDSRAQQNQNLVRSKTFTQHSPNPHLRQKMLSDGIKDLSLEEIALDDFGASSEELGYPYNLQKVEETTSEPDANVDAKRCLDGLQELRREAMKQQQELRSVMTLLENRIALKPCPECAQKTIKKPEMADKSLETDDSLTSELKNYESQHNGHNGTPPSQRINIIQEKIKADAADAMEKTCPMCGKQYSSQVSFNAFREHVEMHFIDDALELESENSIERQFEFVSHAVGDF

An other: myc/FLAG ratio [1] of 0.14 was found for myc-Rab11 (from UniProt O18335) CA in this work.

B1: myc-Rab11, O18335 S25N (protein)
chain: MGAREDEYDYLFKVVLIGDSGVGKNNLLSRFTRNEFNLESKSTIGVEFATRSIEVDGKTIKAQIWDTAGQERYRAITSAYYRGAVGALLVYDIAKHLTYENVERWLRELRDHADQNIVIMLVGNKSDLRHLRSVPTDEAKLFAERNGLSFIETSALDSTNVETAFQNILTEIYRIVSQKQIRDPPEGDVIRPSNVEPIDVKPTVTADVRKQCCQ
An other: myc/FLAG ratio [2] of 1.07 was found for B1 in this work.
